Test results taken from patent publication US20060110769A1, “Regulation of novel human prolyl 4-hydroxylases” (Bayer Aktiengesellschaft, priority 2001, published 2006).

Experiments:
Format in all cases: cell-based, human
HIF-1 alpha = test: Cotransfection reporter assay (HIF-RE2-luc) with HIF-1 alpha in HEK/293 cells; conditions: for sensitivity of double mutant HIF-1 alpha (P402/577G) activity to cotransfected hydroxylase: HEK/293, double mutant, constitutively active; for sensitivity of HIF-1 alpha P402G mutant to cotransfected hydroxylase, versus wild type HIF-1 alpha: HEK/293, glycine substituted for P402; for sensitivity of HIF-1 alpha P577 mutant to cotransfected hydroxylase: HEK/293, mutation of P577; for reduction of transactivation activity of cotransfected HIF-1 alpha on hypoxia responsive reporter gene construct: HEK/293, wild type HIF-1 alpha, equal amounts of each plasmid transfected
Procedure: (§1) HIF-prolyl hydroxylase activity of PH-2 was examined in a cellular co-transfection assay in HEK/293 cells. In a typical experiment, cells were seeded at a density of 2×10^4 cells per well in 96-well tissue culture plates (Greiner, Germany) and grown in DMEM F12 tissue culture medium (Gibco) supplemented with 10% fetal calf serum (PAA) and antibiotics for 24 hours at 37° C. in a humidified tissue culture incubator (Heraeus, Germany) in a 5% CO2 atmosphere. Plasmid DNA was introduced into the HEK/293 cells by use of Lipofectamin reagent (Gibco) according to the manufacturer's instructions.
(§2) The following expression plasmids were used in transfection experiments. pCDNA3 cloning vectors were obtained from Invitrogen: • HIF-1alpha pcDNA3 containing the coding sequence of mouse hypoxia inducible factor-1 alpha (Gene bank accession number: NM_010431). • HIF-1 alpha P402G pcDNA3 containing the coding sequence of mouse hypoxia inducible factor-1 alpha in which the HIF proline hydroxylase sensitive proline residue at position 402 was replaced with glycine by site-directed mutagenesis using QuickChange™ XL Site-Directed Mutagenesis Kit, Stratagene. • HIF-1 alpha P577G pcDNA3 containing the coding sequence of mouse hypoxia inducible factor-1alpha in which the HIF proline hydroxylase sensitive proline residue at position 577 (the ortholog of P564 of human HIF) was replaced with glycine by site-directed mutagenesis using QuickChange™ XL Site-Directed Mutagenesis Kit, Stratagene. • HIF-1 alpha P402/577G pcDNA3 containing the coding sequence of mouse hypoxia inducible factor-1alpha in which both HIF proline hydroxylase sensitive proline residues at positions 402 and 577 were replaced with glycine by site-directed mutagenesis using QuickChange™ XL Site-Directed Mutagenesis Kit, Stratagene. • HIF-2 alpha pcDNA3 containing the coding sequence of mouse hypoxia inducible factor-2 alpha (Gene bank accession number: AF045160). • HIF-RE2-luc, HIF reporter construct (constructed in pGL3, Promega) consisting of a minimal promoter containing a tandem of hypoxia responsible elements (FIG. 5, bold underlined) and the CMV promoter TATA box (FIG. 5, underlined) upstream of the firefly luciferase gene. • pRLTK (Promega) containing the coding sequence of renilla luciferase, used as transfection standard. • PH-alpha(I) pcDNA3 containing the coding sequence of human prolyl 4-hydroxylase alpha (I) (Gene bank accession number: U14620). • EGLN3 pcDNA3 containing the coding sequence of a recently identified human HIF-prolyl-hydroxylase (Epstein et al., Cell 107, 43-54, 2001; Bruick & McKnight, Science 294, 1337-40, 2001; gene bank accession number: XM—052824). • PH-2 pcDNA3 containing the coding sequence from SEQ ID NO:3.
(§3) In a typical experiment, 30 ng of HIF-RE2 pGL3 luciferase reporter plasmid and 10 ng pRLTK internal standard were cotransfected with prolyl-4 hydroxylase and HIF pCDNA3 expression plasmids. The amount of transfected pCDNA3 plasmids was kept constant at 60 ng by filling up with pCDNA3 empty cloning vector. Twenty-four hours later, luciferase activity was measured in a lumibox equipped with a Hamamatsu camera (Hamamatsu Photonics, Japan) using after lysis of cells in luciferase buffer.
A luciferase reporter construct in which a tandem of hypoxia responsive elements linked to a minimal promoter drive firefly luciferase was cotransfected with HIF-1 alpha and HIF-2 alpha, respectively, and with the candidate HIF prolyl 4-hydroxylases EGLN3 and PH-2, respectively.

HIF-2 alpha protein = test: Western blot analysis of HIF-2 alpha protein in cotransfected HEK/293 cells; conditions: HEK/293, HIF-2 alpha specific polyclonal antibody
Procedure: as §1, with “instructions. […]” for “instructions.”

HIF-2 alpha = test: Cotransfection reporter assay (HIF-RE2-luc) with HIF-2 alpha in HEK/293 cells; conditions: for activity of HIF-2 alpha on reporter: HEK/293, hydroxylase and HIF-2 alpha cotransfected in a ratio 10:1; for activity on HIF-2 alpha compared with activity on HIF-1 alpha: HEK/293 cotransfection reporter assay
Procedure: as §1, §2, §3

[1] = HEK/293, equal amounts of each plasmid transfected

B1: EGLN3: recently identified human HIF-prolyl-hydroxylase (gene bank accession number XM—052824), expressed from EGLN3 pcDNA3 (protein)
chain: MPLGHIMRLDLEKIALEYIVPCLHEVGFCYLDNFLGEVVGDCVLERVKQLHCTGALRDGQLAGPRAGVSKRHLRGDQITWIGGNEEGCEAISFLLSLIDRLVLYCGSRLGKYYVKERSKAMVACYPGNGTGYVRHVDNPNGDGRCITCIYYLNKNWDAKLHGGILRIFPEGKSFIADVEPIFDRLLFFWSDRRNPHEVQPSYATRYAMTVWYFDAEERAEAKKKFRNLTRKTESALTED
In the case of B1, the “sensitivity of double mutant HIF-1 alpha (P402/577G) activity to cotransfected hydroxylase” value (HIF-1 alpha) is reported as “almost completely resistant”, the “sensitivity of HIF-1 alpha P402G mutant to cotransfected hydroxylase, versus wild type HIF-1 alpha” value (HIF-1 alpha) is reported as “equally sensitive” and the “sensitivity of HIF-1 alpha P577 mutant to cotransfected hydroxylase” value (HIF-1 alpha) is reported as “less sensitive”. For the same molecule, the “reduction of transactivation activity of cotransfected HIF-1 alpha on hypoxia responsive reporter gene construct” value (shortened to “reduction”) (HIF-1 alpha) was “about 90%”, the “HIF-2 alpha protein by Western blot” value (HIF-2 alpha protein) was “disappearance” and the “activity of HIF-2 alpha on the hypoxia responsive reporter gene construct” value (HIF-2 alpha; [1]) was “reduced”. For the same molecule, the “activity of HIF-2 alpha on reporter” value (HIF-2 alpha) was “completely abolished” and the “activity on HIF-2 alpha compared with activity on HIF-1 alpha” value (HIF-2 alpha) was “less active”.

B2: PH-2: novel human prolyl 4-hydroxylase, SEQ ID NO:4; expressed from PH-2 pcDNA3 containing the coding sequence from SEQ ID NO:3 (protein, listed as Homo sapiens)
chain: MAAAAVTGQRPETAAAEEASRPQWAPPDHCQAQAAAGLGDGEDAPVRPLCKPRGICSRAYFLVLMVFVHLYLGNVLALLLFVHYSNGDESSDPGPQHRAQGPGPEPTLGPLTRLEGIKVGHERKVQLVTDRDHFIRTLSLKPLLFEIPGFLTDEECRLIIHLAQMKGLQRSQILPTEEYEEAMSTMQVSQLDLFRLLDQNRDGHLQLREVLAQTRLGNGWWMTPESIQEMYAAIKADPDADGVLSLQEFSNMDLRDFHKYMRSHKAESSELVRNSHHTWLYQGEGAHHIMRAIRQRVLRLTRLSPEIVELSEPLQVVRYGEGGHYHAHVDSGPVYPETICSHTKLVANESVPFETSCRYMTVLFYLNNVTGGGETVFPVADNRTYDEMSLIQDDVDLRDTRRHCDKGNLRVKPQQGTAVFWYNYLPDGQGWVGDVDDYSLHGGCLVTRGTKWIANNWINVDPSRARQALFQQEMARLAREGGTDSQPEWALDRAYRDARVEL
In the case of B2, the “sensitivity of double mutant HIF-1 alpha (P402/577G) activity to cotransfected hydroxylase” value (HIF-1 alpha) is reported as “almost completely resistant”, the “sensitivity of HIF-1 alpha P402G mutant to cotransfected hydroxylase, versus wild type HIF-1 alpha” value (HIF-1 alpha) is reported as “equally sensitive” and the “sensitivity of HIF-1 alpha P577 mutant to cotransfected hydroxylase” value (HIF-1 alpha) is reported as “less sensitive”. For the same molecule, the “reduction” value (HIF-1 alpha) was ~80%, the “HIF-2 alpha protein by Western blot” value (HIF-2 alpha protein) was “disappearance” and the “activity of HIF-2 alpha on the hypoxia responsive reporter gene construct” value (HIF-2 alpha; [1]) was “reduced”. The “activity on HIF-2 alpha relative to EGLN3” value (HIF-2 alpha; [1]) was “by a factor two less active”, the “activity of HIF-2 alpha on reporter” value (HIF-2 alpha) was “completely abolished” and the “activity on HIF-2 alpha compared with activity on HIF-1 alpha” value (HIF-2 alpha) was “less active”.

B3: PH-alpha(I): human collagen prolyl 4-hydroxylase alpha (I) (Gene bank accession number U14620), expressed from pcDNA3 (protein)
chain: HPGFFTSIGQMTDLIHTEKDLVTSLKDYIKAEEDKLEQIKKWAEKLDRLTSTATKDPEGFVGHPVNAFKLMKRLNTEWSELENLVLKDMSDGFISNLTIQRQYFPNDEDQVGAAKALLRLQDTYNLDTDTISKGNLPGVKHKSFLTAEDCFELGKVAYTEADYYHTELWMEQALRQLDEGEISTIDKVSVLDYLSYAVYQQGDLDKALLLTKKLLELDPEHQRANGNLKYFEYIMAKEKDVNKSASDDQSDQKTTPKKKGVAVDYLPERQKYEMLCRGEGIKMTPRRQKKLFCRYHDGNRNPKFILAPAKQEDEWDKPRIIRFHDIISDAEIEIVKDLAKPRLSRATVHDPETGKLTTAQYRVSKSAWLSGYENPVVSRINMRIQDLTGLDVSTAEELQVANYGVGGQYEPHFDFARKDEPDAFKELGTGNRIATWLFYMSDVSAGGATVFPEVGASVWPKKGTAVFWYNLFASGEGDYSTRHAACPVLVGNKWVSNKWLHERGQEFRRPCTLSELE
For B3, the “reduction” value (HIF-1 alpha) was “did not reduce”.
